Measured values: paper doi:10.1101/2020.06.12.149468v2 (biorxiv, 2026)
Each block holds one molecule with its values, some of them ahead of it.

Columns and labels:
[1] = molecular target: T1, mouse NR4A3 ligand-binding domain (Mus musculus, UniProt Q9QZB6); assay: isothermal titration calorimetry
T1 sequence (Q9QZB6 395-624): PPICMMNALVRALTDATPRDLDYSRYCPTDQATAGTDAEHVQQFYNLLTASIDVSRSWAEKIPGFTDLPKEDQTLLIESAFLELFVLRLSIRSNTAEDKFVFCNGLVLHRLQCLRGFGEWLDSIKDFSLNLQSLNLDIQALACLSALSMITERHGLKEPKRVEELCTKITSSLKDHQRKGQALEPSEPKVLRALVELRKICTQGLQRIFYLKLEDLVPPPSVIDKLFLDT

[2] = system: C[C@]12CCC(=O)C=C1CC[C@@H]1[C@@H]2[C@@H](O)C[C@@]2(C)[C@H]1CC[C@]2(O)C(=O)CO; assay: purified protein; conditions: 50 mM phosphate pH 7.5, NADH
purified protein = substrate: C[C@]12CCC(=O)C=C1CC[C@@H]1[C@@H]2[C@@H](O)C[C@@]2(C)[C@H]1CC[C@]2(O)C(=O)CO; assay: purified protein; conditions: 50 mM phosphate pH 7.5, NADH; remark: listed apart in the source

Kd [1]: 21.9 ± 2.6 µM
Molecule: C[C@]12CCC(=O)C=C1CC[C@@H]1[C@@H]2[C@@H](O)C[C@@]2(C)[C@H]1CC[C@]2(O)[C@@H](O)CO [20α-dihydrocortisol]

Kd [1]: 66.6 ± 17.4 µM
Molecule: CCCCC[C@H](O)/C=C/[C@H]1C=CC(=O)[C@@H]1C/C=C\CCCC(=O)O [PGA2]

Molecule: DesC ([Clostridium] scindens ATCC 35704; H50A)
Km [2]: 23.99 ± 0.26 µM
kcat [2]: 0.208 ± 0.0148 s⁻¹

Molecule: DesC ([Clostridium] scindens ATCC 35704; S47T)
Km [2]: 77.78 ± 1.78 µM
kcat [2]: 0.011 ± 0.00067 s⁻¹

Molecule: DesC ([Clostridium] scindens ATCC 35704; Y101R)
Km [2]: 628.65 ± 29.96 µM
kcat [2]: 0.0295 ± 0.005 s⁻¹

Molecule: DesC ([Clostridium] scindens ATCC 35704; Y124R)
Km [2]: 61.01 ± 2.71 µM
kcat [2]: 0.134 ± 0.00233 s⁻¹

B1: DesC ([Clostridium] scindens ATCC 35704) (protein)
chain: MRQLFVTSIRDFEKNTMGTVDMMEAPMPEPKDEEIRIKVVYASICGSDTHILTGNLGEMESTTRSMLPMSFGHELSGVIDKVGSTAEKMGFKVGQKVVANYAKYCGCCENCREGKVNLCSNMGYRMNGFSEYAVYHMSQIFPIPDDADLKDYALVEPLTVALSSAEQAKISYGKSVAIMGAGGLGMMLVQLARLAGASTITVFDIVPEKLELALENGADYALNSAEEGVAERAIELAGGRYDCVLEGTGATAAAKLGLQLLARDGDAVYFAMYGKDPILPVNLQSDLYWDQKHIHGMIQGAWQFPKSIRMIPRMDFSKIIQKEHTLTNYKQAFEDLYSKKYAKIVIKMDE
Km (purified protein): 11.62 ± 1.02 µM
kcat (purified protein): 1.538 ± 0.125 s⁻¹
